According to patent US20120231006A1 (Amgen, published 2012):
Residue numbers refer to the chain shown, from its start.

B1: mAb 5F7.1 (antibody, human IgG2, lambda)
heavy: QVQLVQSGAEVKKPGASVKVPCKASGYTFTDYYINWVRQAPGQGLEWMGWINPNNGGTNYAQKFQGRVTMTRDTSISTAYMELRRLRSDDTAVYYCARERGGYEDWFDPWGQGTLVTVSSASTKGPSVFPLAPCSRSTSESTAALGCLVKDYFPEPVTVSWNSGALTSGVHTFPAVLQSSGLYSLSSVVTVPSSNFGTQTYTCNVDHKPSNTKVDKTVERKCCVECPPCPAPPVAGPSVFLFPPKPKDTLMISRTPEVTCVVVDVSHEDPEVQFNWYVDGVEVHNAKTKPREEQFNSTFRVVSVLTVVHQDWLNGKEYKCKVSNKGLPAPIEKTISKTKGQPREPQVYTLPPSREEMTKNQVSLTCLVKGFYPSDIAVEWESNGQPENNYKTTPPMLDSDGSFFLYSKLTVDKSRWQQGNVFSCSVMHEALHNHYTQKSLSLSPGK
light: QSVLTQPPSVSGAPGQRVTISCTGSSSNIGAGFDVHWYQQLPVTAPKLLIYGNRNRPSGVPARFSGSKSGTSASLAITGLQAEDEAVYYCQSYDSSLTVFGGGTKLTVLGQPKANPTVTLFPPSSEELQANKATLVCLISDFYPGAVTVAWKADGSPVKAGVETTKPSKQSNNKYAASSYLSLTPEQWKSHRSYSCQVTHEGSTVEKTVAPTECS
notes: fully human IgG2 lambda, Campaign 2
B2: mAb 5A1.1 (antibody, human IgG2)
heavy: B1 heavy
VL: QSVLTQPPSVSGAPGQRVTISCTGSSSNIGAGFDVHWYQQLPVTAPKLLIYGNRNRPSGVPARFSGSKSGTSASLAITGLQAEDEAVYYCQSYDSSLTVFGGGTKLTVL
notes: fully human, Campaign 2; lambda CL-1
B3: mAb 2B4.1 (antibody, human IgG2, lambda, V domains shown)
VH: QVQLVQSGAEVKKPGASVKVSCKASGYTFTDYYMHWVRQAPGQGLEWMGWINPNSGGTNYVQKFQDRVTMTRDTSITTAYMELTRLRSDDTAVYYCAREEGDYGMDVWGQGTTVTVSS
VL: QSVLTQPPSVSGAPGQRVTISCTGSNSNIGTGYDVHWYQKLPGTAPRLLIYSHFNRPSGVPDRFSGSTSGTSASLAITGLQAEDEADYYCQSYDSSLSGSVFGGGTKLTVLG
B4: mAb 5A4.2 (antibody, human IgG2, lambda, V domains shown)
VH: QVQLVQSGAEVKKPGASVKVSCKASGYTFTDYYMNWVRQAPGQGLEWMGWINPNSGGTKYAQKFQGRVTMTRDTSIRTAYMELSRLRSDDTAVYYCSREYGGNSDWFDPWGQGTLVTVSS
VL: QSVLTQPPSVSGAPGQRVTISCTGSSSNIGAGYDVHWYQQLPGTAPKLLIYGNSNRPSGVPDRFSGSKSGTSASLAITGLQAEDEADYYCQSYDNRLSDSVVIGGGTKLTVQG
notes: as for B1
B5: mAb 5B1.1 (antibody, human IgG2, lambda, V domains shown)
VH: B4 VH with M34I, T58S, K59S, R77S, Y80H, S84I, S97A, Y100R, N103I, S104E
VL: QSVLTQPPSVSGAPGQRVTISCTGSSSNIGAGYDVHWYQQLPGTAPKLLIYGNSNRPSGVPDRFSGSKSGTSASLAITKFQAEDEAVYYCQSYGSGLSGVVFGGGTKLTVLG
notes: fully human IgG2 lambda, Campaign 2; also called mAb 5Bl1.1
B6: mAb 5B5.2 (antibody, human IgG2, lambda, V domains shown)
VH: B4 VH with M34I, K59D, S84N, R87T, S97A, N103Y, S104E
VL: QSVLTQPPSVSGAPGQRVTISCTGSNSNIGAGFDVHWYQQLPGTVPKLLIYGNNNRPSGVPDRFSGSKSGTSASLAITGLQAEDEADYYCQSYDSRLTVFGGGTKLTVLG
notes: fully human IgG2 lambda, Campaign 2; same chains as 5B5.1
B7: mAb 5F2.1 (antibody, human IgG2, lambda, V domains shown)
VH: B4 VH with K59H, R77S, S97A, N103Y
VL: B4 VL with S26R, G43R, G52D, T71S, R96S, V102L, Q112L
notes: as for B1
B8: mAb 5C1.1 (antibody, human IgG2, lambda, V domains shown)
VH: B4 VH with S97A
VL: B4 VL with T110A
notes: as for B1

Legend:
[1] = target: T1, hOrai1-mOrai1 ECL2 (…) protein (human/mouse chimera, UniProt Q96D31 1-301); assay: FACS, 293EBNA, RFI-POC grade; design: concentration or dose not given beside the values
T1 construct: also called Ch
T1 sequence (Q96D31 other isoform, or with tags, fused parts or gaps): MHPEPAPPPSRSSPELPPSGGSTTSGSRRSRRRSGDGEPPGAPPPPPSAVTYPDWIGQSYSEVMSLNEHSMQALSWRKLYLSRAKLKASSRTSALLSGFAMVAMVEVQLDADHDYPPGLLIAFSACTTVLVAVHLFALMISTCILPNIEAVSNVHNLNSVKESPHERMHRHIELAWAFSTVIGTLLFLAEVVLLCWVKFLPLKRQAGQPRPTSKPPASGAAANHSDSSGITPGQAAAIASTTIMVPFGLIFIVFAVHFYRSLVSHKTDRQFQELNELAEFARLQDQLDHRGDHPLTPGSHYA

[2] = target: T2, hOrai1-mOrai1 ECL2 (RPTSKPPA) protein (human/mouse chimera, UniProt Q96D31 1-301); assay: FACS, 293EBNA, RFI-POC grade; design: concentration or dose not given beside the values
T2 construct: also called Ch

[3] = target: T3, mOrai1-hOrai1 ECL2 chimeric protein (human/mouse chimera, UniProt Q8BWG9 1-304 (mouse entry)); assay: FACS, 293EBNA, RFI-POC grade; design: concentration or dose not given beside the values
T3 construct: mouse Orai1 with human ECL2; also called Ch

[4] = target: T4, hOrai1-mOrai1 ECL2 (…) protein (human/mouse chimera, UniProt Q96D31 1-301); assay: FACS, 293EBNA, RFI-POC grade; design: concentration or dose not given beside the values; remark: listed apart in the source
T4 construct: also called Ch
T4 sequence (Q96D31 other isoform, or with tags, fused parts or gaps): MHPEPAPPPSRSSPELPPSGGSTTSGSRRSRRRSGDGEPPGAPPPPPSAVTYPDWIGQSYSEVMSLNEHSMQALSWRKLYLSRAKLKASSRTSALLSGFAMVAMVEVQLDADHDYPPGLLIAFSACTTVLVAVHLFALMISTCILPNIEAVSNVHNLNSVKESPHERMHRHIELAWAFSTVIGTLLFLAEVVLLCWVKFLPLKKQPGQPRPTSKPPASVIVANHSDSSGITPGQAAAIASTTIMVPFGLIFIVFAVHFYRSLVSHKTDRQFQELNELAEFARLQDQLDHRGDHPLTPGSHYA

human Orai1 = target: T5, human Orai1 (human, UniProt Q96D31 1-301); assay: KinExA, AM1-CHO/hOrai1/hSTIM1-YFP cells
T5 construct: on AM1-CHO/hOrai1/hSTIM1-YFP, AM1/hOrai1, HEK-293 transfectants, endogenous on Jurkat and blood cells; in Westerns from cell lysates; also called hOrai1; CRACM1
Procedure: Each equilibrium sample set was read in triplicate on the KinExA machine. For low [Ab] equilibrium samples 4 mL was run of each sample in triplicate. For high [Ab] equilibrium samples 300 μL was run of each sample in triplicate. […] For each equilibrium sample the free [Ab] would be detected by first running the coated beads through the flow cell, then after quick wash with the running buffer (1×PBS pH7.4+1% BSA+0.05% Sodium Azide) the equilibrium samples were passed through the beads followed by a quick wash with the running buffer. Then the secondary detection Ab, Gt anti Hu (H+ L) Cy5, was run through the flow cell at 1 μg/mL and 1000 μL per run. The KinExA voltage output signal was then used in KinExA software to calculate the Kd values for each antibody. From the plots at two different initial total [Ab] concentrations the Kd was obtained from curve fitting using n-curve analysis in KinExA Pro software (Sapidyne Instruments Inc., Boise Id.).

[5] = target: T6, hOrai1-mOrai1 ECL2 (SKPPA) protein (human/mouse chimera, UniProt Q96D31 1-301); assay: FACS, 293EBNA, RFI-POC grade; design: concentration or dose not given beside the values
T6 construct: also called Ch
T6 sequence (Q96D31 other isoform, or with tags, fused parts or gaps): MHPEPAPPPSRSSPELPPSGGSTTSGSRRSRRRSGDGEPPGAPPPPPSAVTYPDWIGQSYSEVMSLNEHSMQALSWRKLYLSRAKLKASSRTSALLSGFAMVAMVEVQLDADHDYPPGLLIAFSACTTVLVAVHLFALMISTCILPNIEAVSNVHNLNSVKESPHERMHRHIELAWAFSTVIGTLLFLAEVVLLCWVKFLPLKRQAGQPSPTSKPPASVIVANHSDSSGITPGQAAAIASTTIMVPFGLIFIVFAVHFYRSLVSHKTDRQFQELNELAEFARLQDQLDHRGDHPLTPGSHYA

T2 sequence (Q96D31 other isoform, or with tags, fused parts or gaps): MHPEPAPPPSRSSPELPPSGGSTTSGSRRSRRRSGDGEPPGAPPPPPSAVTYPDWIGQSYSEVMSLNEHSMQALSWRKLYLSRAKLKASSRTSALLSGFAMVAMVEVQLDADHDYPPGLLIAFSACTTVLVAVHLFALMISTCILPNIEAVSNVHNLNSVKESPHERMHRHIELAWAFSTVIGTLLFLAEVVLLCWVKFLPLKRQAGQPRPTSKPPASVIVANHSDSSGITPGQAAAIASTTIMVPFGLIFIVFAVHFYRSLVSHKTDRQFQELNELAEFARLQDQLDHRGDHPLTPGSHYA
T3 sequence (Q8BWG9 other isoform, or with tags, fused parts or gaps mutant): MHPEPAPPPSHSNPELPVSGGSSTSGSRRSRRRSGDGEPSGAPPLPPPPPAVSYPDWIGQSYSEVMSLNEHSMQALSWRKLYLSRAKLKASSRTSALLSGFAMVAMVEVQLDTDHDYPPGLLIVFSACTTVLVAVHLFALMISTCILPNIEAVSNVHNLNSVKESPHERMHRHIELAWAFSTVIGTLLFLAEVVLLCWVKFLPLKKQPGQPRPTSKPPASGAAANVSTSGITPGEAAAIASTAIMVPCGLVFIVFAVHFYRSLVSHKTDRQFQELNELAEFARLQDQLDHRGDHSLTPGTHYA
T5 sequence (Q96D31 whole entry): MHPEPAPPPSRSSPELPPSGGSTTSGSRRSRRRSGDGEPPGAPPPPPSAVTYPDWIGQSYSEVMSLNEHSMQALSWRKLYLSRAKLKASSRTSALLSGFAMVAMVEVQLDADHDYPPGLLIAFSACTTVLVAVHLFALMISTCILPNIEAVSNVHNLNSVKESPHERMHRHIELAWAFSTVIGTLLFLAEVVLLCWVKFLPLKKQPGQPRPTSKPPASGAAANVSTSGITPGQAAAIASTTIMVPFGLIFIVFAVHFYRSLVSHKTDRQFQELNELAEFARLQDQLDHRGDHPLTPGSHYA

Row | Binder | percent of control (POC) of FACS Geo Mean [1] | percent of control (POC) of FACS Geo Mean [2] | percent of control (POC) of FACS Geo Mean [3] | percent of control (POC) of FACS Geo Mean [4] | Kd (human Orai1) | percent of control (POC) of FACS Geo Mean [5]
1 | B1 | 40 to 100% | 40 to 100% | 40 to 100% | 40 to 100% | 0.019 nM | 
2 | B2 | 40 to 100% | 40 to 100% | 40 to 100% | 40 to 100% |  | 
3 | B3 |  |  |  |  |  | 1 to 5%
4 | B4 | 40 to 100% | 40 to 100% | 40 to 100% | 40 to 100% |  | 
5 | B5 | 40 to 100% | 40 to 100% | 40 to 100% | 40 to 100% |  | 
6 | B6 | 40 to 100% | 40 to 100% | 40 to 100% | 40 to 100% |  | 
7 | B7 | 40 to 100% | 40 to 100% | 40 to 100% | 40 to 100% |  | 
8 | B8 | 40 to 100% | 40 to 100% | 40 to 100% | 40 to 100% |  | 
